Measured values as given in the supplement of paper PMC9170038.

Test system: MS2 coat protein
Assay: apparent KD of MS2 coat protein; designed switch direction (-1 OFF switch, 1 ON switch): -1; higher = weaker reporter binding
Procedure, shortened: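 Stalled E. coli RNA polymerase transcribed designed RNA switches on Illumina chips, which were then titrated with SNAP-549-labelled MS2 coat protein, doubling from 0.7 or 1.5 nM to 3 µM. Steps lasted from 0.8–1.5 h at the lowest concentration to 10–20 min at the highest. The apparent KD is each design's median over clusters of curve-fitted normalised fluorescence.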

[1] = input ligand: microRNA oligo, concentration not stated
[2] = Eterna round: R95, input ligand: microRNA oligo, concentration not stated

Sequence: CCUCUGUAAGGAUAUACGGAGACCACUGGAAUCAGUGGAAAGUAGAAGGUACAUGAGGAUCACCCAUGUGAGAA [Laveatisce] (Eterna round: R96, puzzle: Exclusion 4)
- apparent KD of MS2 coat protein [1]: 0.0679 µM

Sequence: GACUGCCGAGGAUAUACAUGAGGAUCACCCAUGUGCUUCAGCAUUUAAUAAUGCAUGGGUAGAAGGCGGUAGUC [LRO-Excl3-12] (puzzle: Exclusion 3)
- apparent KD of MS2 coat protein [2]: 0.0405 µM

Sequence: AUUAUAUAGACAGGAUAUUGAUUAUUAUUUUAACAUGAGGAUCACCCAUGUAGCCUUAUGUAUAGCAAGAAGGGUCAUUUAUUA [Title] (Eterna round: R96, puzzle: Exclusion NG 2)
- apparent KD of MS2 coat protein [1]: 0.122 µM

Sequence: GUCACAUGGGUAUAGGAUCACAUGAGGAUCACCCAUGUGACUAACAAGCUUUUUGCUCGUCUUAUGUCUAUGUGAAG [Stov1/18-A1] (Eterna round: R97, puzzle: Sensor, turn-off variant 1)
- apparent KD of MS2 coat protein (input ligand: FMN 200 uM): 0.0429 µM
- apparent KD of MS2 coat protein (input ligand: none): 0.0269 µM

Sequence: AUUAAUGUCAAAGGAUAUCAGCACGAUUAGUGCUGAGAAGGUUGAACAUGAGGAUCACCCAUGUAGAUCAUUAAUAAUUUAAUU [ENG1/10-B2] (Eterna round: R96, puzzle: Exclusion NG 1)
- apparent KD of MS2 coat protein (input ligand: FMN 200 uM): 0.0264 µM
- apparent KD of MS2 coat protein [1]: 0.0179 µM
- apparent KD of MS2 coat protein (input ligand: none): 0.0169 µM

Sequence: CCAGGCGUCUUUGCUCGUCUUAUUUGGAGAUGACUGUUAACAUGAGGAUCACCCAUGUGUGUGGGAGCGUUGCAGUC [JR_SV3TOV2_Sub021] (puzzle: Sensor v3, turn-off variant 2)
- apparent KD of MS2 coat protein (Eterna round: R95, input ligand: FMN 200 uM): 0.58 µM
- apparent KD of MS2 coat protein [2]: 0.431 µM
- apparent KD of MS2 coat protein (Eterna round: R95, input ligand: none): 0.885 µM

Sequence: UAUUUAGCAAGCAGAUCCCACAUGAGGAUCACCCAUGUUCUCUGAAAGUACAGAAUUACUGUACAUGCUCGUCUUAU [Winner reversed engineered 33] (Eterna round: R97, puzzle: Sensor, turn-off variant 1)
- apparent KD of MS2 coat protein (input ligand: FMN 200 uM): 0.108 µM
- apparent KD of MS2 coat protein (input ligand: none): 0.13 µM

Sequence: CAUCCACAUGAGGAUCACCCAUGUCAGGAUAUCUAUCAUAGCAUCGAAAGAUGCGGGUAGAGAAGGGACAAACC [ChP Ext 10-04-2015 #9] (puzzle: Exclusion 1)
- apparent KD of MS2 coat protein [2]: 0.0124 µM

Sequence: GAUCAUGCAGGAUAUACAGUAUCCAUGAAAACAUGGAUCUCACAUGAGGAUCACCCAUGUAGAAGGGCAUGAUC [Omei Ex2 A25] (Eterna round: R97, puzzle: Exclusion 2)
- apparent KD of MS2 coat protein (input ligand: FMN 200 uM): 0.0401 µM
- apparent KD of MS2 coat protein (input ligand: none): 0.0414 µM

Sequence: UUGUAGGGAGGAUAUCAGAAGCUCCACAUGAGGAUCACCCAUGUAGCCGCUGCUGGAUUCUGAGAAGGCUUGGGUU [Eternabot (L2) Solution 8] (Eterna round: R97, puzzle: Exclusion 5)
- apparent KD of MS2 coat protein (input ligand: FMN 200 uM): 0.0588 µM
- apparent KD of MS2 coat protein (input ligand: none): 0.0583 µM

Sequence: AAAAGUUUGGAGGAUAUCCAUCCAAACGGAUAAGGAGAAGGCCGGACAUGAGGAUCACCCAUGUGAUUAGGUUA [Isradiri] (puzzle: Exclusion 6)
- apparent KD of MS2 coat protein [2]: 0.0134 µM

Sequence: CUGCUGAAGCUUUGCUUUAGUCGUACAUGAGGAUCACCCAUGUAGGAUAUGGUAGGCUUUGCUUACUAGAAGGAUAGAGUGAUC [salish99_ExNG3_r04_604] (Eterna round: R96, puzzle: Exclusion NG 3)
- apparent KD of MS2 coat protein (input ligand: FMN 200 uM): 0.072 µM
- apparent KD of MS2 coat protein [1]: 0.0824 µM
- apparent KD of MS2 coat protein (input ligand: none): 0.0619 µM

Sequence: GUUGUGUGAGGAUAUGCCUGGCCGUGAGGCCAGAUUGAGUGGCAGAAGGUACAUGAGGAUCACCCAUGUACGGG [salish99_ex4_4_004] (Eterna round: R97, puzzle: Exclusion 4)
- apparent KD of MS2 coat protein (input ligand: FMN 200 uM): 0.0541 µM
- apparent KD of MS2 coat protein (input ligand: none): 0.0244 µM

Sequence: AGUAUGUCAGGAUAUCUCGGGUAGCCCACAAGGACUACCGAAGAGAAGGGACAUGAGGAUCACCCAUGUACCAU [EX4 B.24] (Eterna round: R97, puzzle: Exclusion 4)
- apparent KD of MS2 coat protein (input ligand: FMN 200 uM): 0.0199 µM
- apparent KD of MS2 coat protein (input ligand: none): 0.0214 µM

Sequence: AUUAGCUGAGGAUAUGCAGCUUUGUUCGUCGAGUGAAAAGAACAUGAGGAUCACCCAUGUAGAAGGCAGUUGAC [Raargexe] (puzzle: Exclusion 2)
- apparent KD of MS2 coat protein [2]: 0.0148 µM

Sequence: UACAUGAGGAUCACCCAUGUUUUGUCGUGUAUGGUAUUUAUCUAGGAUAUCAAGUUAUUAAUUUAUGAGAAGGAGAAUAUUAAU [JMF's solution 32] (Eterna round: R96, puzzle: Exclusion NG 3)
- apparent KD of MS2 coat protein (input ligand: FMN 200 uM): 0.0439 µM
- apparent KD of MS2 coat protein [1]: 0.0274 µM
- apparent KD of MS2 coat protein (input ligand: none): 0.0421 µM

Sequence: AGCUGUGGCCGAGGAUAUCACGACCGAUGGAAAACCAUCGGAACUCCACAUGAGGAUCACCCAUGUGAGAAGGCGGUCUCAGCA [Eli eng2 - 028] (Eterna round: R96, puzzle: Exclusion NG 2)
- apparent KD of MS2 coat protein (input ligand: FMN 200 uM): 0.0273 µM
- apparent KD of MS2 coat protein [1]: 0.0102 µM
- apparent KD of MS2 coat protein (input ligand: none): 0.0134 µM

Sequence: UGACACACCUGAGGAUAUUCUGAACGUUUCCCAGAAGAAGGUAGGUACAGCGGGAGCGCCACAUGAGGAUCACCCAUGUCUACC [Eternabot solution 46] (Eterna round: R96, puzzle: Exclusion NG 1)
- apparent KD of MS2 coat protein (input ligand: FMN 200 uM): 0.126 µM
- apparent KD of MS2 coat protein [1]: 0.103 µM
- apparent KD of MS2 coat protein (input ligand: none): 0.142 µM

Sequence: AGAUCGUCAGGAUAUACAUGAGGAUCACCCAUGUGUAGUCUAAAUUUGACUACAAUAUGUAGAAGGGACGAUCG [Exclusion 3 (MOD3 of #1 Marzena11)] (Eterna round: R97, puzzle: Exclusion 3)
- apparent KD of MS2 coat protein (input ligand: FMN 200 uM): 0.0989 µM
- apparent KD of MS2 coat protein (input ligand: none): 0.0428 µM

Sequence: UAUUACCUAGGAUAUACAUGAGGAUCACCCAUGUCACGGGUCAACUUGUCCUACGCGUGUAGAAGGAGGGACCC [JL Ceriza mod 7] (puzzle: Exclusion 3)
- apparent KD of MS2 coat protein [2]: 0.0197 µM

Sequence: AGCUGUGGCCGAGGAUAUCUGUUCCAUAAAACCGAAAUAUAAUCGGACAUGAGGAUCACCCAUGUAGAGAAGGCGGUCUCAGCA [Eli eng2 - 099] (Eterna round: R96, puzzle: Exclusion NG 2)
- apparent KD of MS2 coat protein [1]: 0.0183 µM

Sequence: GGGUAAUUCGUGAGGAUAUCGCUAAGCACUUUGGCCGAGAAGGCACAUGAGGAUCACCCAUGUAAUACGGCACG [Eternabot (L1) Solution 92] (Eterna round: R97, puzzle: Brourd's mod of Exclusion 4)
- apparent KD of MS2 coat protein (input ligand: FMN 200 uM): 0.0709 µM
- apparent KD of MS2 coat protein (input ligand: none): 0.0191 µM

Sequence: CCACUGUCAGGAUAUCGUGCAUAACGUUUACAUUUUAUGUGCGAGAAGGGACAUGAGGAUCACCCAUGUAAACG [Omei Ex4 A28PK2] (Eterna round: R97, puzzle: Exclusion 4)
- apparent KD of MS2 coat protein (input ligand: FMN 200 uM): 0.206 µM
- apparent KD of MS2 coat protein (input ligand: none): 0.808 µM

Sequence: CCUAUGUGAGGAUAUCACUGGUCUUCUUUUAUUUUUUACAGUGAGAAGGCACAUGAGGAUCACCCAUGUCGGUG [Ex4 - 3 - 49] (puzzle: Exclusion 4)
- apparent KD of MS2 coat protein [2]: 0.151 µM

Sequence: AUUGUUUAUGUAGGAUAUGCCUGGCGUGCCUUCGCAGAAGGACAUGAGGAUCACCCAUGUAUUGCGGUCUGCGUUCAGAUCGCA [salish99_ExNG1_r4_024] (Eterna round: R96, puzzle: Exclusion NG 1)
- apparent KD of MS2 coat protein [1]: 0.0452 µM

Sequence: AAUACACAUGAGGAUCACCCAUGUCAGGAUAUGCGGAAUAAGACUUUGGUCGAUAAAUGUAGAAGGGACGUUUA [Dr. RN-Ant/Googlypuddle] (puzzle: Exclusion 1)
- apparent KD of MS2 coat protein [2]: 0.0277 µM

Sequence: UAUGUGUCAGGAUAUUAGUAGUAAAUAAAUAAAAUUAUUACUGAGAAGGGACAUGAGGAUCACCCAUGUGCCUU [Salish 062 v31] (Eterna round: R97, puzzle: Exclusion 4)
- apparent KD of MS2 coat protein (input ligand: FMN 200 uM): 0.0232 µM
- apparent KD of MS2 coat protein (input ligand: none): 0.0123 µM
